Data: patent US20240209095A1 (published 2024)

Target: PDL1-hFc (UniProt Q9NZQ7 19-238)
Experiment: ELISA

Sequence of PDL1-hFc (Q9NZQ7 19-238): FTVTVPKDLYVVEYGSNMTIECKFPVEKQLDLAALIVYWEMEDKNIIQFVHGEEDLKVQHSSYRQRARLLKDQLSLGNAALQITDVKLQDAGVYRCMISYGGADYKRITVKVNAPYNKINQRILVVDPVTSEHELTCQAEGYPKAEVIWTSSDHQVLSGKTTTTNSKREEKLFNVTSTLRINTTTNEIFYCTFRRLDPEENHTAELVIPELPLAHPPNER

Kd: 66.6 pM
B1: mouse-human chimera 3C3 MM (antibody, V domains shown)
VH: EVQLQESGPGLTKPSQTLSLTCSVTGYSITSDYWDWIRKFPGNKLEYMGYISYTGSTYYNPSLRSRISITRDTSKNQYYLQLSSVTSEDSATYYCARRGGWLSPFVYWGQGTLVTVSA
VL: DTVMSQSPSSLGVSVGERVTLTCKSRQSLLFSSNQKNSLAWYQQKPGQSPKLLIYWASTRESGVPDRFTGSGSGTDFTLTISSVKSEDLAVYYCQQYYTYPFTFGAGTSLELK
